Experimental data as given in patent publication US10508147B2, “Anti-nodal antibodies and methods of using same” (ANN AND ROBERT H. LURIE CHILDREN'S HOSPITAL OF CHICAGO, priority 2014, dated 2019).
Entries after “also recorded” stand apart in the source; their conditions may differ.

Tests used:
[1] = test system: MDA-MB-231 breast cancer cells; experiment: Western blot analysis of MDA-MB-231 breast cancer cells treated with 3D1; format: cell-based, human; settings: 72 hrs
Protocol: (§1) To determine the level of Nodal expression in brain, kidney, liver, pancreas, heart and skeletal muscle ready to use adult tissue extracts for Western blotting (WB) were purchased from Santa Cruz Biotechnology. For WB experiments of cell lines, whole cell lysates were prepared and quantified. SDS-PAGE gel electrophoresis and WB were performed using standard techniques. PVDF membranes were blocked in 5% non-fat milk or 5% BSA and antibodies diluted in either 5% non-fat milk or 5% bovine serum albumin overnight at 4° C., depending on the manufacturer's recommendations. Signal was detected using West Pico chemiluminescence reagent (Thermo Fisher) and exposure to x-ray film.

[2] = test system: C8161 metastatic melanoma cells; experiment: C8161 lung colonization (metastasis) model in Nude mice; format: in vivo; settings: for lung colonization: IP 3D1 vs IgG control
Protocol: Lung tumor burden was determined as the mean percentage of lung occupied by C8161 melanoma cell colonies calculated from at least 5 different lung sections per individual mouse (See FIG. 26). Experimental Protocol: 250,000 C8161 metastatic melanoma cells were injected i. v. in Nude mice and lung colonization established. Following colonization, animals received by i.p. delivery either 3D1 monoclonal anti-Nodal antibody (100 μg/injection) or control IgG over the next 10 days, every other day (5 total injections).
To evaluate the in vivo effects of 3D1 mAb, a metastatic melanoma lung metastasis model was established by injecting 250,000 C8161 cells intravenously in Nude mice. After 4 days during which cells were allowed to colonize the lungs, mice were separated into treatment and control groups. The treatment group received a total of 500 μg of 3D1 mAb versus 500 μg of irrelevant isotype IgG in the control group administered over 10 days (alternate day intraperitoneal injection (IP) of 100 μg of either 3D1 mAb or IgG). At the end of the treatment period, mice were sacrificed and lungs harvested and processed for histologic evaluation of lung tumor burden and immunohistochemistry. Lung tumor burden was determined by evaluating the mean percentage of lung tissue occupied by C8161 in at least 4 separate fields at low power (10× objective) in lungs from at least 4 separate mice for each group and performed by 2 different observers. A final mean±SEM was calculated from the separate means determined by the individual observers.
Four micron thick, formalin fixed, paraffin embedded tissue sections were prepared and immunohistochemistry was carried out on a Dako Plus autostainer (DAKO, Inc, Carpenteria, Calif.). Following antigen retrieval and blocking steps, sections were incubated in primary antibody for 60 mins, followed by appropriate biotinylated secondary antibody (Biocare Medical, Conrad, Calif.), and then streptavidin-horseradish peroxidase (Thermo Scientific Lab Vision). Color was developed with 3,3′-diaminobenzidine substrate (Thermo Scientific Lab Vision) and sections were counterstained with hematoxylin (Biocare Medical, LLC). As a negative control, adjacent serial sections were incubated with species appropriate irrelevant IgG (Jackson ImmunoResearch Labs) at the same concentration as primary antibodies. Similar to the lung tumor burden evaluation described above, mean percentage of positive staining±SEM was determined by 2 different observers, each calculating the ratio of positive cells/total number of cells×100 for 4 separate high power fields (63× objective) from at least 2 different mice per group.

C8161 cells = experiment: C8161 orthotopic (subcutaneous) xenograft in Nude mice, intratumoral treatment; format: in vivo
Protocol: Experiments were carried out to determine the in vivo effects of 3D1 mAb on primary melanoma. To this end, 500,000 C8161 cells were injected subcutaneously in Nude mice. Palpable tumors were then injected directly with either 700 μg of total 3D1 mAb or IgG control antibody (alternate day intratumoral injection of 100 μg over 14 days). Mice were then sacrificed and subcutaneous tumors harvested and processed as previously described. To evaluate the effect of 3D1 mAb in the presence of the BRAF(V600E) mutation, a third orthotopic xenograft model was established in Nude mice via subcutaneous injection of approximately 150,000 A375SM human metastatic melanoma cells. Mice were treated IP with 3D1 mAb or IgG control, as described above, or 3 mg/kg of dabrafenib.
Four micron thick, formalin fixed, paraffin embedded tissue sections were prepared and immunohistochemistry was carried out on a Dako Plus autostainer (DAKO, Inc, Carpenteria, Calif.). […] Similar to the lung tumor burden evaluation described above, mean percentage of positive staining±SEM was determined by 2 different observers, each calculating the ratio of positive cells/total number of cells×100 for 4 separate high power fields (63× objective) from at least 2 different mice per group.

[3] = test system: A375SM human melanoma cell line; experiment: Western blot of A375SM cells treated with BRAFi (dabrafenib) or 3D1; format: cell-based; settings: 72 hr
Protocol: as §1

B1: 3D1: mouse monoclonal anti-Nodal antibody raised against hNodal(44-67); light chain SEQ ID NO:1, heavy chains SEQ ID NO:2 and 3 (protein)
light: DIKMTQSPASLSASVGETVTITCRASGNIHNYLAWYQQKQGKSPQLLVYNAKTLADGVPSRFSGSGSGTQYSLKINSLQPEDFGSYYCQHFWSTPHVRCWDQAGTETEAW
heavy 1: VKLVESGGGLVKPGGSLKLSCAASGFTFSSYAMSWVRQTPEKRLEWVASISSGGCTYYPDSVKGRFTISRDNARNILYLQMSSLRSEDTAMYYCARGSMITADGNSLLLCYGLLGSRNLXHR
heavy 2: VKLVESGGGLVQPGGSMKLSCVASGFTFRNYWMSWVRQSPEKGLEWVAEIRLKSDNYAARYAESVKGKFTISRDDSKSRLYLQMNSLRAEDTGIYYCTGIRRFAYWGQGTL
modifications: not fully specified; (120)..(120) Xaa can be any naturally occurring amino acid
- Nodal expression and P-H3 by WB [1]: noteworthy reduction
- reduction in Nodal ([1]; 4 μg/ml, vs IgG control): 45%
- reduction in the level of the proliferation/mitosis marker P-H3 ([1]; 4 μg/ml, vs IgG control): 49%
- mean percentage (±SEM) of cells staining for p27 in lung colonies ([2]; IHC, N=6): 39.5%±17%
- mean percentage (±SEM) of cells with nuclear localization of P-Smad2 in lung colonies ([2]; IHC, N=6): 39±8.9%
- percentage (+/−SEM) of cells staining for Cyclin B1 in lung colonies ([2]; IHC, N=6): 25.9%±9.4%
- lung tumor burden: mean percentage (±SEM) of lung tissue occupied by C8161 colonies ([2]; IP 100 μg alternate days over 10 days, N=8): 25.8%±4.6%
- lung colonization [2]: reduced lung colonization
- lung colonization ([2]; listed as 3D1 mAb): significantly reduced
- mean percentage (±SEM) of cells with strong positive nuclear P-Smad2 staining (C8161 cells; IHC of tumor sections, N=4): 51.3%±3.3%
- tumor volumes (C8161 cells; direct intratumoral injection, days 8 to 14, vs IgG control, listed as 3D1 mAb): significantly smaller; also recorded: Reduced tumor volumes
- Nodal expression [3]: more dramatic reduction in Nodal expression
- Nodal expression ([3]; listed as 3D1 mAb): significantly reduced
